Experimental data reported in the supplement of paper PMC9170038.

Test system: MS2 coat protein
Assay: apparent KD of MS2 coat protein; higher = weaker reporter binding
Conditions: Eterna round: R107
Protocol: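 RNA-MaP round R107: designed RNA switches with theophylline, tryptophan, arginine or FMN aptamers are transcribed on-chip within common flanks. They are titrated with SNAP-549-labelled MS2 coat protein in RNA-MaP buffer (100 mM Tris pH 7.5, 80 mM KCl, 4 mM MgCl2), without ligand or with the indicated ligand. Median apparent KD per design.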

[1] = input ligand: theophylline 20 uM
[2] = input ligand: theophylline 2 mM
[3] = input ligand: tryptophan 2.4 mM

Sequence	apparent KD of MS2 coat protein (input ligand: arginine 13.2 mM) [nM]	apparent KD of MS2 coat protein [1] [nM]	apparent KD of MS2 coat protein [2] [nM]	apparent KD of MS2 coat protein (input ligand: none) [nM]	apparent KD of MS2 coat protein [3] [nM]
AACAUACAAUAUUAGGUGGAUAUAAGGCGGCGAGGACCGGUACGGCCGCCACUCGCGUACAUGAGGAUCACCCAUGUCUGAAACU [Same State - Tryptophan A (Freestyle 4)]	16.6	26.8	24.3		
AACAUGAGGAUCACCCAUGUUUGCUAUGAAGGAGCGUCGGAAAUGACAGGUAGGUCGCAUGGUAGACCGAGUAUUAUCUGUAUGG [EAA NP+V+V2 #11]	14.9	19.5	10.7	9.74	12.1
AACUGGACCAGUGAUACCAGAGACAUGAGGAUCACCCAUGUACAUGAGGAUCACCCAUGUCUCCCUUGGCAGCACAGCAGGGAGC [Exclusion Theophylline B Gf12]	66	109	720	117	119
AAUAACUUGAGGAUCACCCAAGUAAAAGAUACCAGAGUGAUGAUCCUCCCUUGGCAGCUUAACGCUGAUUGAUUACAAUCAGCGA	63.2	182	121	62.3	45.8
AAUACCGGUCCUCGAAGGUGAUCCUCAUAACGAGGACCGGUACGGCCGCCACUCGAUAACAUGAGGAUCACCCAUGUAAUAAUAA [|T'-M'-Trp-Ms2|_Design6]	56.1	175	235		
AAUAUAAUAUAAAUAAUAAUAAUAUCUGAUACCAGACUCUCAUGUGUCCCUUGGCAGCAGUAACAUGAGGAUCACCCAUGUAAUA [JR_Nu_SSTheophyA_Sub027]	33	46.7	16.2	62.7	52
AAUAUAUAUCACGAACUGUGGUGUAUGUUGCGAGGACCGGUACGGCCGCCACUCGGCCGGUGGUACAUGAGGAUCACCCAUGUUG [XTryp A #9]	35.3	48.7	40.1	25.3	28.2
AAUGAUGCGAUCUACAGUCGAGGAUUCGAUACCAGCAACGGGCGUUGCCCUUGGCAGCGAGCUACAUGAGGAUCACCCAUGUUAC [theeternabot_exclusion_MS2_Theo_A_45]	16.8	25.5			19.4
AAUGUAUGGCACAUGAGGAUCACCCAUGUGCGAGGACCGGUACGGCCGCCACUCGGUCGGUGGUUAAUGAAGCUAUACAUUAAUG [XTryp A #13]	26.8	53.5	55.1		
AAUUCAAGGUUCUUGAUGUAUUAUAUAUUUCGAGGACCGGUACGGCCGCCACUCGUUAAUUACAUGAGGAUCACCCAUGUUAGCU [JR_ExcTryptoA_Sub010]	14.2	16	17.2		
AAUUCAAUUUUCUUGAUGUAUUAUAUAUUUCGAGGACCGGUACGGCCGCCACUCGUUAAUUACAUGAGGAUCACCCAUGUUAGCU [JR_ExcTryptoA_Sub009]	13.6	17.5	16.2		
AAUUUAAACGGAAGGAGCGUCACUUAAUAUCAACAUGAGGAUCACCCAUGUACGGGUUGUAGACAGGUAGGUCGCCGUCAUUUGA [#15 Same State - Arginine B]	49.4	74.5	64.5	47.9	53.5
ACACCGAAAGGUGCAUUUACCUUAUCAGAUACCAGACUUUACGUUGUCCCUUGGCAGCUGUAUCACAUGAGGAUCACCCAUGUUG [JR_SSTheophyA_Sub011]	19.3	18.8			16.6
ACACGAAGCUGAAGGAGCGUGGUAUAAAUUUUUACAUGAGGAUCACCCAUGUUUCAUCAAUCACAGGUAGGUCGCAGAUGCGUGA [JR_SSArginiB_Sub014]	19.6	18.6	20.2	14.1	15.9
ACAUCCAGGUUAAUCGUGGGCAUGGUCGAUACCAGUAUUUUAAUCUACCCUUGGCAGCGACAUGAGGAUCACCCAUGUGCGAUGA [XTheo A #13]	20.1	33.7			25.8
ACAUGAGGAUCACCCAUGUAAUAAGGAGAAGGAGCGCGUAAGGACGCAGGUAGGUCGCUCGUGGUCCGGCCGCAAGGCCGGACCA [#1 Same State - Arginine A Attempt #8 (HarryS)]	4.83	15.4	8.04	11.2	9.31
ACAUGAGGAUCACCCAUGUACAUAAGGGAAGGAGCGCGGUGAAACGCAGGUAGGUCGCCCAUAAUAACAAACAUUAAAUUCAUGU [LeftA2]	28	18.6	17.9	14.3	16.6
ACAUGAGGAUCACCCAUGUACAUGAGGGAAGGAGCGGUACAUGAGCCAGGUAGGUCGCCCAUGAGCAUCAGGCAUGUACAUCAGC [kokmmullin]	47.6	97.3	105	99.5	56.6
ACAUGAGGAUCACCCAUGUAUUACCGGGAAGGAGCGGCCGCAAGGCCAGGUAGGUCGCUCGGUGUCGUGCUGUAAAGCACGACAA [#1 Same State - Arginine A Attempt #29 (HarryS)]	11.9	16.7	11.5	10.2	9.61
ACAUGAGGAUCACCCAUGUAUUCAUCAGAAGGAGCGUGGAAUAACACAGGUAGGUCGCUGAUUAUUUGUUAAAUAAAUUCGUGUA [JR_Nu_SSArginiA_Sub023]	19.3	19.1	16	16.1	16.4
ACAUGAGGAUCACCCAUGUCAAGGCACGAUACCAGCUGAUCCGGUGGCCCUUGGCAGCGUCACGUUUGGUCCCGCGGAUGACACG [p'pmullin]	32.1	139			106
ACAUGAGGAUCACCCAUGUUAAGCAGGGUGCGAGGACCGGUACGGCCGCCACUCGGACAUUAUUACGAGUGAAUGGUAACGAUGU [#14 Exclusion Tryptophan A]	23.3	29.8	24.5	18.2	21.7
ACAUGAGGAUCACCCAUGUUCCUCAUUGAUACCAGUGAAUUUAGACGCCCUUGGCAGCGAGUUUUUUUAGAAGAAGUUUUUUUUU [6.F]	158	659			929
ACAUGAGGAUCACCCAUGUUCCUCAUUGAUACCAGUGAAUUUAGACGCCCUUGGCAGCGAGUUUUUUUAUAAGAAGUUUUUUUUU [6.G]	280	659			900
ACAUGAGGAUGGGAUACCAGAUACAUGAGGAUCACCCAUACAUGAGGAUCACCCAUGUCCGUCCCUUGGCAGCCCAACAUGAGGA [Exclusion Theophylline B]	77.4	153			150
ACAUGAGUGGAUAAUAAAUAAGAAGGCGAAGGAGCGUGAAGAAUCACAGGUAGGUCGCGCAAAAUACAUGAGGAUCACCCAUGUU [JR_Nu_ExcArginiA_Sub031]	22.5	35.3	29.8	27.6	25.9
ACAUGUUGGUGGUAUCUACGAAGGCGGAAACGAGGACCGGUACGGCCGCCACUCGGCGACAUGAGGAUCACCCAUGUGGUUAAGA [Exclusion - Tryptophan A (Freestyle 6)]	21.5	118	131		
ACAUUGCGCUCGGCCGCCACUGCCUUAUGAUUAUAAGGAUUAAUGAACAUGAGGAUCACCCAUGUCAGGACCGGGAGCGAACCAU [SSTryp B #6]	11.4	16	14.1		
ACAUUUAACUGAAGGAGCGUGAUAUUUACAUGAGGAUCACCCAUGUCUAUCAUGAGAUAUUCACAGGUAGGUCGCAGACUAAUGA [JR_ExcArginiB_Sub005]	38.9	40.9	46.9	26.7	29.4
